Assay results as given in patent US20200040059A1.
Values belong to the substance of their own block, whether it stands above or below them.

How the values were obtained:
CD96 = biological target: T1, CD96 (UniProt P40200); test: flow cytometry on CD96-expressing cells
T1 sequence (looked up): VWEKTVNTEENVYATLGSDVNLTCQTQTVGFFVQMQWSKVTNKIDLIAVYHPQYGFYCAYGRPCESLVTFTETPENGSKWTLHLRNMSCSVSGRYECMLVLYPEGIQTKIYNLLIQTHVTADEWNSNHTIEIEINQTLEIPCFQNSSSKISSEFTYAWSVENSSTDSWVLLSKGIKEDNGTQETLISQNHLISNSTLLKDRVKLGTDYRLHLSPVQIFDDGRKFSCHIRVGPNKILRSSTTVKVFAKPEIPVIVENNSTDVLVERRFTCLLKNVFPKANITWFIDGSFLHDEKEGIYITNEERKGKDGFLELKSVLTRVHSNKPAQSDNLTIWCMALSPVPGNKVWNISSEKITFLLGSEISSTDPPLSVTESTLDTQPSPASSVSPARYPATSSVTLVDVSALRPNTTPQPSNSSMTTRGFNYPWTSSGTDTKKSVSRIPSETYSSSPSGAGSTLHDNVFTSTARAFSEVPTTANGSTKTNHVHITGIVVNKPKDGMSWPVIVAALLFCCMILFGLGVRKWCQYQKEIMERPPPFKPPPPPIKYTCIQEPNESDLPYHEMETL

CD112R (human) = CD112R (human) (UniProt Q6DKI7); test: flow cytometry on CD112R-expressing cells
CD28 (human) [1] = biological target: CD28 (human) (UniProt P10747); test: flow cytometry, transfected cells
CTLA4 (human) [2] = biological target: CTLA4 (human) (UniProt P16410); test: flow cytometry, transfected cells
PD-L1 (human) [3] = biological target: PD-L1 (human) (UniProt Q9NZQ7); test: flow cytometry, transfected cells
CTLA4 (human) [4] = biological target: CTLA4 (human) (UniProt P16410); test: flow cytometry; MFI vs m21
PD-L1 (human) [5] = biological target: PD-L1 (human) (UniProt Q9NZQ7); test: flow cytometry; MFI vs m21
[6] = biological target: CD80 (Homo sapiens (Human)) (UniProt P33681); test: flow cytometry, cells expressing CD80
[7] = biological target: CD80 (Homo sapiens (Human)) (UniProt P33681); test: flow cytometry, cells expressing CD80; vs WT PD-L1 (IgV + IgC) Fc
human B7-H6 (human) [8] = biological target: human B7-H6 (human) (UniProt Q68D85); test: flow cytometry; MFI vs m9
human B7-H6 (human) [9] = biological target: human B7-H6 (human) (UniProt Q68D85); test: flow cytometry, transfected cells
CD28 (human) [10] = biological target: CD28 (human) (UniProt P10747); test: flow cytometry; MFI vs m14
human B7-H6 (human) [11] = biological target: human B7-H6 (human) (UniProt Q68D85); test: flow cytometry; MFI vs m14
[12] = biological target: T2, human CD226, full length, expressed on transfected Expi293 cells (human) (UniProt Q15762); test: flow cytometry, Expi293 cells transfected with full-length human CD226
T2 sequence: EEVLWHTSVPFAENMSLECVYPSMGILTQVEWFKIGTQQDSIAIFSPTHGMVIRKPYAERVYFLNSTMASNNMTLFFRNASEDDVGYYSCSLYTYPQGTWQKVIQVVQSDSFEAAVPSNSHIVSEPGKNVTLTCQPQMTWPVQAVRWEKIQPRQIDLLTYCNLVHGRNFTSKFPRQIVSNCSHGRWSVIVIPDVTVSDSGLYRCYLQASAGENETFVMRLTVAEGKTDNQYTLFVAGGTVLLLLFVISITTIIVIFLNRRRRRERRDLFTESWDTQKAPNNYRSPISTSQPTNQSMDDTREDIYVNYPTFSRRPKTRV

CD28 (human) [13] = biological target: CD28 (human) (UniProt P10747); test: flow cytometry on HEK293 cells transfected with CD28
CTLA4 (human) [14] = biological target: CTLA4 (human) (UniProt P16410); test: flow cytometry on HEK293 cells transfected with CTLA4
PD-L1 (human) [15] = biological target: PD-L1 (human) (UniProt Q9NZQ7); test: flow cytometry on HEK293 cells transfected with PD-L1
CTLA4 (human) [16] = biological target: CTLA4 (human) (UniProt P16410); test: flow cytometry, MFI on CTLA4 cells over MFI on CD28 cells
human ICOS (human) = test: flow cytometry, transfected cells
CTLA4 (human) [17] = biological target: CTLA4 (human) (UniProt P16410); test: flow cytometry, transfected cells; column head doubtful
PD-L1 (human) [18] = biological target: PD-L1 (human) (UniProt Q9NZQ7); test: as above
[19] = biological target: human CD28, full-length, expressed on transfected Expi293 cells (human) (UniProt P10747); test: flow cytometry on CD28-expressing Expi293 cells
[20] = biological target: human ICOS, full-length, expressed on transfected Expi293 cells (human) (UniProt Q9Y6W8); test: flow cytometry on ICOS-expressing Expi293 cells
[21] = biological target: human B7-H6, full-length, expressed on transfected Expi293 cells (human) (UniProt Q68D85); test: flow cytometry on B7-H6-expressing Expi293 cells
PD-1-Fc = test: Fortebio (BLI), PD-1-Fc
[22] = biological target: PD-1 (Homo sapiens (Human)) (UniProt Q15116); test: flow cytometry, Jurkat/PD-1 cells
[23] = biological target: PD-1 (Homo sapiens (Human)) (UniProt Q15116); test: flow cytometry, Jurkat/PD-1 cells; vs wildtype PD-L2 IgV-Fc
TIGIT (human) = biological target: T3, TIGIT (human) (UniProt Q495A1); test: flow cytometry on TIGIT-expressing cells
T3 sequence: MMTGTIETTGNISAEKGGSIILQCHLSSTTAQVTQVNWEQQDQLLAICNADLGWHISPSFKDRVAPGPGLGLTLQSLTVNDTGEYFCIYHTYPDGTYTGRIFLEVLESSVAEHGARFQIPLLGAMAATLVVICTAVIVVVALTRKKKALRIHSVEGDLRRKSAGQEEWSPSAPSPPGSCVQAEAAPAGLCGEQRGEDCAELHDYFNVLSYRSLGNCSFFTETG

human B7-H6 (human) [24] = biological target: human B7-H6 (human) (UniProt Q68D85); test: flow cytometry; MFI vs m10
CD28 (human) [25] = biological target: CD28 (human) (UniProt P10747); test: flow cytometry; MFI vs m21
[26] = biological target: human CD112R, full length, expressed on transfected Expi293 cells (human) (UniProt Q6DKI7); test: flow cytometry, Expi293 cells transfected with full-length human CD112R
Sequence of human CD112R, full length, expressed on transfected Expi293 cells (human) (Q6DKI7 whole entry): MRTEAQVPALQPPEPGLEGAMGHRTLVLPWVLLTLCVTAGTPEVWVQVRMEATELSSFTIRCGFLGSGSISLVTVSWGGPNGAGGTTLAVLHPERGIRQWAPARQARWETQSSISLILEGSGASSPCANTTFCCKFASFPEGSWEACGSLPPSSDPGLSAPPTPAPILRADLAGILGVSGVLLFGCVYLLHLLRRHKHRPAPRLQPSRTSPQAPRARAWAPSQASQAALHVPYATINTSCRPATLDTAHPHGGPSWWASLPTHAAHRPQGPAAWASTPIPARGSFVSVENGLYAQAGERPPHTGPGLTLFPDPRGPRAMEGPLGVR

Sequence of PD-1 (Homo sapiens (Human)) (Q15116 21-288 limits assumed, form in doubt): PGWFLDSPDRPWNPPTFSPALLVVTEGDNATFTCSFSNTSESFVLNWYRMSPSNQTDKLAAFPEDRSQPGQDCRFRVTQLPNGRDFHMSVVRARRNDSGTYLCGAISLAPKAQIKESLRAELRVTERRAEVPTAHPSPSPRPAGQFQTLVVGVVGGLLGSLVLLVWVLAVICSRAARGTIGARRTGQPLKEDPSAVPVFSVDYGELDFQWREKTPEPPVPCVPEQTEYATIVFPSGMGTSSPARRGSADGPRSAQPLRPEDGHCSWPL
Sequence of CTLA4 (human) (P16410 36-223 limits assumed): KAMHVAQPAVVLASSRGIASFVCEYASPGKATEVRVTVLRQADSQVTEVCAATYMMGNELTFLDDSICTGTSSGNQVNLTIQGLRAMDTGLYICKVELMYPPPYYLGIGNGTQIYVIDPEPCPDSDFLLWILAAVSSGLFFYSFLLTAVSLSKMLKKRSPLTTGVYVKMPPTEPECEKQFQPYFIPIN
Sequence of PD-L1 (human) (Q9NZQ7 19-290 limits assumed): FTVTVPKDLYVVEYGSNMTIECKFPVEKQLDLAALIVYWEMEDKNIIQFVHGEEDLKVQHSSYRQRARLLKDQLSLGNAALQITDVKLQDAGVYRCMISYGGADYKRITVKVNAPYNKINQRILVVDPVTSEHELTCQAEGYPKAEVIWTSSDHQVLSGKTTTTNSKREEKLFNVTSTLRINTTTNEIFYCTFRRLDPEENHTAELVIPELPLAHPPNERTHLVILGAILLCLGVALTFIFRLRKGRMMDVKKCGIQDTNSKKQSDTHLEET
Sequence of human B7-H6 (human) (Q68D85 25-454): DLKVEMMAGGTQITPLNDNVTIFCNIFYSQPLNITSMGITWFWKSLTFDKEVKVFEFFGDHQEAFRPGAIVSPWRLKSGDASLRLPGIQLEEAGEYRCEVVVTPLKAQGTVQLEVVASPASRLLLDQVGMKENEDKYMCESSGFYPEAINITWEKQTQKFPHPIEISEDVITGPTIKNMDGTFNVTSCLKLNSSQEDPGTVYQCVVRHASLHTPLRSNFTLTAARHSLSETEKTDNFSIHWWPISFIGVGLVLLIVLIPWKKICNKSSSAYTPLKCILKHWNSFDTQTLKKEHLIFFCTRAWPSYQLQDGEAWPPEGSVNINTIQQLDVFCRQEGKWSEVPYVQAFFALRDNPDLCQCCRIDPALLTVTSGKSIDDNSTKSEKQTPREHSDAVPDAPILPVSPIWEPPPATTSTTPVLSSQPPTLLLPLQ
Sequence of Domain 1: ICOSL WT / Domain 2: CD80 WT / Fc (Fc fusion) (chain): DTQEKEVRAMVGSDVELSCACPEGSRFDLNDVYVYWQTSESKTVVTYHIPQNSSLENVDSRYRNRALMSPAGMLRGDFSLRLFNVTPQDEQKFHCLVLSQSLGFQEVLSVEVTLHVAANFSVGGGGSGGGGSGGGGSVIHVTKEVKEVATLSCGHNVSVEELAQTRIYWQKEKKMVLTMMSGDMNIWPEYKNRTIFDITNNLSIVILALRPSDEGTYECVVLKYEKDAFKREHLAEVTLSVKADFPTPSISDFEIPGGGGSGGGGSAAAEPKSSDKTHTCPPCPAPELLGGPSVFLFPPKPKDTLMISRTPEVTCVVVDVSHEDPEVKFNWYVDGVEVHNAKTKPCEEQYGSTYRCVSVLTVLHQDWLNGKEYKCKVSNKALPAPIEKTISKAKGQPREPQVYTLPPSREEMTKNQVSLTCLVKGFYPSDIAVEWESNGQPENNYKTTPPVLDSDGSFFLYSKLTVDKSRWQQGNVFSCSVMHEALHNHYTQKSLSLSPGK
Sequence of Domain 1: CD80 WT / Domain 2: CD80 WT / Fc (Fc fusion) (chain): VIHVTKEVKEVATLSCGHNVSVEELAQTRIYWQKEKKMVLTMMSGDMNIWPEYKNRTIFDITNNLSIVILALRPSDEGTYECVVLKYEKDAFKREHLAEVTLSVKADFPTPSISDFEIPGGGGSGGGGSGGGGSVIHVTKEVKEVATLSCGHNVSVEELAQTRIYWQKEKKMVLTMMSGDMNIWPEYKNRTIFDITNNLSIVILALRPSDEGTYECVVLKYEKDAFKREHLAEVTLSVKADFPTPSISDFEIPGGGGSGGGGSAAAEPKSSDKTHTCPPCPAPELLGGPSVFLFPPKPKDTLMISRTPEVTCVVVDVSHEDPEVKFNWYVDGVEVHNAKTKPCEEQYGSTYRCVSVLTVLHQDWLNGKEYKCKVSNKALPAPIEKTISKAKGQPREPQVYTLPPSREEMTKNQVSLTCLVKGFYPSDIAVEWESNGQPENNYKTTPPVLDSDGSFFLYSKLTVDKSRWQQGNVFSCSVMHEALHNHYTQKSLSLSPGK
Sequence of CD80 (Homo sapiens (Human)) (P33681 35-288 limits assumed): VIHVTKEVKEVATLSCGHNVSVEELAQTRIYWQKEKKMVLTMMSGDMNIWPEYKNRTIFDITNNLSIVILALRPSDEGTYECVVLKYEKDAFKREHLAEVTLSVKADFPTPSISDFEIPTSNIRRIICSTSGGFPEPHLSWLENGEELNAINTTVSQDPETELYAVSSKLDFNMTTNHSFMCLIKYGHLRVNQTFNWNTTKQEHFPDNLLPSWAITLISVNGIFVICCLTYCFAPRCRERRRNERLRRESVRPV
Sequence of human B7-H6, full-length, expressed on transfected Expi293 cells (human) (Q68D85 25-454): as the sequence (Q68D85 25-454) above
Sequence of Wildtype CD112-IgV Fc (Q92692 32-156 limits assumed): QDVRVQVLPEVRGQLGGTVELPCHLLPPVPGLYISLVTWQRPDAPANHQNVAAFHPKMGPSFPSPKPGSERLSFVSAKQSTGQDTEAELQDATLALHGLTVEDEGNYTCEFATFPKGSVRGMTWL
Sequence of human ICOS (human) (Q9Y6W8 whole entry): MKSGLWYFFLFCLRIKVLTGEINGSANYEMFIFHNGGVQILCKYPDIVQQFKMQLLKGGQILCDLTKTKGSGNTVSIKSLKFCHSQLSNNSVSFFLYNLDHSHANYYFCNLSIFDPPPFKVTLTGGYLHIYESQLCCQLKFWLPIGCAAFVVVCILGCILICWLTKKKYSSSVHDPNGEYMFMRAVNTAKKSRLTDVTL
Sequence of CD112R (human) (Q6DKI7 whole entry): as the sequence (Q6DKI7 whole entry) above
Sequence of human ICOS, full-length, expressed on transfected Expi293 cells (human) (Q9Y6W8 21-199 limits assumed): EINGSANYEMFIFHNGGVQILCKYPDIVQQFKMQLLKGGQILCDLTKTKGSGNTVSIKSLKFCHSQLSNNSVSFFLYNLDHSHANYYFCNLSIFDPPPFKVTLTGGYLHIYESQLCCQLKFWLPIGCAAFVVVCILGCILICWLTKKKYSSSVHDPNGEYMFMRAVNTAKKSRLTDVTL

Substance: Domain 1: CD80 WT / Domain 2: CD80 WT / Fc (Fc fusion)
MFI (CD28 (human) [1]): 1630
MFI (CTLA4 (human) [2]): 4700
MFI (PD-L1 (human) [3]): 6300

Substance: variant PD-L1 ECD-Fc K57R, S99G, F189L (from UniProt Q9NZQ7 19-239) (Fc fusion)
MFI at 20 nM [6]: 12900
Fold Change Compared to WT PD-L1 [7]: 96.3 fold

Substance: Domain 1: NKp30 WT / Domain 2: CD80 WT / Fc (Fc fusion)
WT parental MFI ratio (human B7-H6 (human) [8]): 1
MFI (CD28 (human) [1]): 7020
MFI (human B7-H6 (human) [9]): 88800

Substance: Domain 1: ICOSL WT / Domain 2: CD80 WT / Fc (Fc fusion)
MFI (CD28 (human) [1]): 3000
MFI (PD-L1 (human) [3]): 2970
MFI (human ICOS (human)): 14400
MFI (CTLA4 (human) [17]): 14400
MFI (PD-L1 (human) [18]): 3000

Substance: stacked Fc fusion, Domain 1: ICOSL WT / Domain 2: Nkp30 WT
MFI [19]: 7920 MFI
MFI [20]: 70300 MFI
MFI [21]: 118000 MFI
WT parental MFI ratio (ratio to WT stack) [21]: 1

Substance: variant PD-L2 IgV-Fc H15Q, R76G, I85F (SEQ ID NO 1505) (Fc fusion)
Fortebio binding to PD-1-Fc Response Units (Response Units) (PD-1-Fc): -0.006
MFI at 50 nM [22]: 1890
Fold increase over wildtype PD-L2 IgV-Fc [23]: 0.19 fold

Substance: CD112 variant G82S, S118Y IgV-Fc (from UniProt Q92692 32-156) (Fc fusion)
MFI 100 nM (TIGIT (human)): 4270 MFI

Substance: Domain 1: CD80 I67T/L70Q/A91G/T120S / Domain 2: CD80 E88D/K89R/D90K/A91G/F92Y/K93R / Fc (Fc fusion)
WT parental MFI ratio (CD28 (human) [25]): 0.57
WT parental MFI ratio (PD-L1 (human) [5]): 0.16
MFI (CD28 (human) [1]): 938
MFI (PD-L1 (human) [3]): 995

Substance: CD112 variant S118Y IgV-Fc fusion (from UniProt Q92692 32-156)
MFI [26]: 6540 MFI

More lines, now with the values ahead:

MFI at 100 nM (CD96): 8540 MFI
MFI at 100 nM (CD112R (human)): 4840 MFI
Substance: Wildtype CD112-IgV Fc (from UniProt Q92692 32-156) (Fc fusion)

WT parental MFI ratio (CTLA4 (human) [4]): 0.42
WT parental MFI ratio (PD-L1 (human) [5]): 0.31
MFI (CTLA4 (human) [2]): 1990
MFI (PD-L1 (human) [3]): 1930
Substance: Domain 1: CD80 R29V/Y31F/K36G/M38L/M43Q/E81R/V83I/L85I/K89R/D90L/A91E/F92N/K93Q/R94G / Domain 2: CD80 E88D/K89R/D90K/A91G/F92Y/K93R / Fc (Fc fusion)

WT parental MFI ratio (CD28 (human) [10]): 0.32
WT parental MFI ratio (human B7-H6 (human) [11]): 0.5
MFI (CD28 (human) [1]): 4340
MFI (human B7-H6 (human) [9]): 55700
Substance: Domain 1: CD80 (R29H/Y31H/T41G/Y87N/E88G/K89E/D90N/A91G/P109S) / Domain 2: NKp30 (L30V/A60V/S64P/S86G) / Fc (Fc fusion)

MFI [12]: 51900 MFI
Substance: CD112 variant A95V, A112I IgV-Fc fusion (from UniProt Q92692 32-156)

Fold change to WT (CD28 (human) [13]): 0.1 fold
MFI at 66.6 nM (CD28 (human) [13]): 2600 MFI
Fold change to WT (CTLA4 (human) [14]): 0 fold
MFI at 66.6 nM (CTLA4 (human) [14]): 2230 MFI
MFI at 22.2 nM (PD-L1 (human) [15]): 5160 MFI
Ratio of CTLA4:CD28 (CTLA4 (human) [16]): 0.9
Substance: CD80 IgV-Fc I30T/L70R (Fc fusion)

Fortebio binding to PD-1-Fc Response Units (Response Units) (PD-1-Fc): 1.45
MFI at 50 nM [22]: 61000
Fold increase over wildtype PD-L2 IgV-Fc [23]: 6.2 fold
Substance: variant PD-L2 IgV-Fc I13V, H15Q, T47A, Q82R, V89D (SEQ ID NO 1545) (Fc fusion)

WT parental MFI ratio (human B7-H6 (human) [11]): 1
MFI (CD28 (human) [1]): 13700
MFI (human B7-H6 (human) [9]): 110000
Substance: Domain 1: CD80 WT / Domain 2: Nkp30 WT / Fc (Fc fusion)

WT parental MFI ratio (human B7-H6 (human) [24]): 1
MFI (CD28 (human) [1]): 1690
MFI (human B7-H6 (human) [9]): 14100
Substance: Domain 1: NKp30 WT / Domain 2: CD86 WT / Fc (Fc fusion)
